Molecular target: T1, His-DUB3 (deubiquitinating enzyme 3) (UniProt Q6R6M4 1-530)
T1 construct: deubiquitinating enzyme 3 (DUB3); also called purified recombinant His-DUB3; source: purified recombinant (cloned into PET28A)
T1 sequence (looked up): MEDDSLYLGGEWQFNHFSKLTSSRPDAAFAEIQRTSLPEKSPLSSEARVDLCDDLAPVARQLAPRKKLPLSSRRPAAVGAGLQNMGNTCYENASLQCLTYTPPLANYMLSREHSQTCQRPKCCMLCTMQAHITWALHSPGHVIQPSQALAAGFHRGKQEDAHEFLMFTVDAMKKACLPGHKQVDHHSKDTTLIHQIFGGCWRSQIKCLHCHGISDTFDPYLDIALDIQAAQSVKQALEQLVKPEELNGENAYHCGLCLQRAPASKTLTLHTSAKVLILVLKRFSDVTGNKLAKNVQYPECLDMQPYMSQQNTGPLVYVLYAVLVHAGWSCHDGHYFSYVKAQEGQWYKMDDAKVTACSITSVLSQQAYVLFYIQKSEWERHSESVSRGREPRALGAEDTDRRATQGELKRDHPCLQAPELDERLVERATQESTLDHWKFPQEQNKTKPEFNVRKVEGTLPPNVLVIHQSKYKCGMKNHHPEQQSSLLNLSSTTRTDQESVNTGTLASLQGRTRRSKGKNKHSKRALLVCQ
Test: pull-down; purified recombinant GST or GST fusion protein incubated in vitro (cell-free) with purified recombinant His-tagged protein; blot and Coomassie blue staining
Details: both partners purified

binding result: binds
B1: GST-CDK4 (cyclin-dependent kinase 4) (enzyme, UniProt P11802 1-303, looked up)
chain: MATSRYEPVAEIGVGAYGTVYKARDPHSGHFVALKSVRVPNGGGGGGGLPISTVREVALLRRLEAFEHPNVVRLMDVCATSRTDREIKVTLVFEHVDQDLRTYLDKAPPPGLPAETIKDLMRQFLRGLDFLHANCIVHRDLKPENILVTSGGTVKLADFGLARIYSYQMALTPVVVTLWYRAPEVLLQSTYATPVDMWSVGCIFAEMFRRKPLFCGNSEADQLGKIFDLIGLPPEDDWPRDVSLPRGAFPPRGPRPVQSVVPEMEESGAQLLLEMLTFNPHKRISAFRALQHSYLHKDEGNPE
notes: cyclin-dependent kinase 4 (CDK4); CDK4 and CDK6 were cloned as separate genes, so they are written as two molecules; No cyclin is mentioned; also called GST-CDK4/6; source: purified recombinant (cloned into pGEX4T-1)
